Reference: patent publication US9907791B2, “Ron inhibitors for use in preventing and treating bone loss” (UNIVERSITY OF UTAH RESEARCH FOUNDATION, priority 2014, dated 2018)

Experiments:
Type in all cases: cell-based, mice
bone marrow osteoclasts [1] = test: Osteoclast survival assay; details: 100 pg/mL MSP daily from day 7 for 48 hours
Method: (§1) Bone marrow precursor cells were thawed and seeded at a density of 2×10^5 cells per well in a 24-well plate containing glass coverslips in α-MEM media containing 10% FBS and antibiotics. After adhering overnight, media was removed and media containing 33 ng/mL hM-CSF and 9 ng/mL muRANKL was added. Cells were allowed to differentiate for 7 days with media changed every 3 days. Coverslips were then imaged microscopically using phase contrast to determine osteoclast number in each well. To test survival, factor-containing media was removed and α-MEM media containing 10% FBS was added as well as MSP as indicated. Cells were cultured for an additional 48 hours, fixed with 10% NBF for 10 minutes and washed with 1×PBS. For TRAP fluorescent staining, the leukocyte acid phosphatase kit (Sigma, St. Louis, Mo.) was used according to the manufacturer's instructions, with the substitution of 200 μM ELF97 (Invitrogen, Waltham, Mass.) as a phosphatase substrate. Coverslips were incubated in TRAP solution for 15 minutes at 37 degrees, washed with 1×PBS and counterstained with DAPI. The number of multinucleated TRAP+ cells (containing 4 or more nuclei) within 5 representative fields were included for quantification. Experiments were performed in triplicate.

[2] = tested on: WT bone marrow precursor cells; test: Osteoclast differentiation (TRAP+ osteoclasts); details: 100 pg/mL MSP in presence of M-CSF and RANKL
Method: as §1, with “Coverslips were incubated in TRAP solution for 15 minutes at 37 degrees, washed with 1×PBS and counterstained with DAPI.” left out, “Experiments were performed in triplicate.” left out
M-CSF and RANKL were present continuously beginning on day 1 until experimental analysis. […] TRAP+ cells were identified by fluorescent TRAP stain and cells with 4 or more nuclei were counted (***p<0.0001). […]

bone marrow osteoclasts [3] = test: Osteoclast resorption assay; details: 100 pg/mL MSP daily day 9 to 12
Method: Bone marrow osteoclasts were generated from 6 to 8 week old WT and RonTK−/− mice. Briefly, bone marrow was isolated from hindlimb bones and plated in α-MEM media containing 10% heat-inactivated fetal bovine serum (FBS, Sigma, St. Louis, Mo.), 100 units/mL penicillin-streptomycin (Hyclone), and 33 ng/mL human macrophage colony-stimulating factor (hM-CSF) (PeproTech, Rocky Hill, N.J.) for 24 hours. Non-adherent cells were collected and frozen for later use. To assess resorption activity, bone marrow precursor cells were thawed and seeded at a density of 1×10^5 cells per well in BioCoat Osteologic slides (BD Biosciences, San Jose, Calif.) in α-MEM media containing 10% FBS and antibiotics. After adhering overnight, media was removed and media containing 33 ng/mL hM-CSF and 9 ng/mL muRANKL (R & D systems, Minneapolis, Minn.) was added. The medium was changed every 3 days depending on acidification, and the assay was terminated as indicated. Recombinant human MSP was prepared and added daily as indicated. Cells were removed with 6% bleach and slides were viewed microscopically using phase-contrast with 20× magnification. Osteolytic resorption area within 5 representative fields was determined using Image J software, experiments were performed in triplicate. Recombinant MSP was prepared as follows (to be described in detail elsewhere): Concentrated, serum-free media from an MCF7 cell line engineered to overexpress MSP was cleaved with kallikrein (Invitrogen, Waltham, Mass.; 4 ng of kallikrein/1 μg of supernatant protein at 37° C. for 2.5 hours). The reaction was diluted to 20 mL with 10 mM sodium phosphate, pH 7.4 and loaded onto a 5 mL HiTrap heparin column (Millipore, Billerica, Mass.) equilibrated with 20 mL of 10 mM sodium phosphate, pH 7.4, at a rate of 1 mL/min. The column was washed with 10 mL of 10 mM sodium phosphate, pH 7.4, at a rate of 1 mL/min. […]

c-Src = test: Western blot of osteoclast lysates, phospho-Src
Method: Cells were serum starved (0.5% FBS) for 3 hours prior to lysate collection. Inhibitors were added 1 hour prior to lysis and MSP was added 15 min prior to lysis when indicated. Cells were washed with 1×PBS and harvested in lysis buffer (25 mM Tris-HCl, pH 7.5, 0.42 M NaCl, 1.5 mM MgCl2, 0.5 mM EDTA, 1 mM DTT, 25% sucrose, and 0.1% Triton X-100) plus 100× protease arrest (Bioscience, Bozeman, Mont.) and 100× orthovanadate. Primary antibodies used for immunoblotting include: anti-MSP (Santa Cruz, sc-6090, Dallas, Tex.) at a 1:250 dilution, anti-pan Akt (Cell Signaling, #4691S, Beverly, Mass.) at a 1:1000 dilution, anti-pan Erk (Cell Signaling, #4695, Beverly, Mass.) at a 1:1000 dilution, anti-phospho Akt (Cell Signaling, #9271 L, Beverly, Mass.) at a 1:500 dilution, anti-phospho Erk (Cell Signaling, #4370S, Beverly, Mass.) at a 1:500 dilution, anti-Src (Cell Signaling, #2110, Beverly, Mass.) at a 1:500 dilution, and anti-phospho Src (Y416) (Cell Signaling, #2113, Beverly, Mass.) at a 1:500 dilution. The secondary antibodies used were HRP-conjugated anti-goat IgG (Santa Cruz, Dallas, Tex.) and anti-rabbit IgG (Santa Cruz, Dallas, Tex.). Chemiluminescent signals were detected using Immun-Star HRP (BioRad, Hercules, Calif.).

B1: MSP: recombinant human macrophage-stimulating protein, the RON ligand (protein)
chain: QRSPLNDFQVLRGTELQHLLHAVVPGPWQEDVADAEECAGRCGPLMDCRAFHYNVSSHGCQLLPWTQHSPHTRLRRSGRCDLFQKKDYVRTCIMNNGVGYRGTMATTVGGLPCQAWSHKFPNDHKYTPTLRNGLEENFCRNPDGDPGGPWCYTTDPAVRFQSCGIKSCREAACVWCNGEEYRGAVDRTESGRECQRWDLQHPHQHPFEPGKFLDQGLDDNYCRNPDGSERPWCYTTDPQIEREFCDLPRCGSEAQPRQEATTVSCFRGKGEGYRGTANTTTAGVPCQRWDAQIPHQHRFTPEKYACKDLRENFCRNPDGSEAPWCFTLRPGMRAAFCYQIRRCTDDVRPQDCYHGAGEQYRGTVSKTRKGVQCQRWSAETPHKPQFTFTSEPHAQLEENFCRNPDGDSHGPWCYTMDPRTPFDYCALRRCADDQPPSILDPPDQVQFEKCGKRVDRLDQRRSKLRVVGGHPGNSPWTVSLRNRQGQHFCGGSLVKEQWILTARQCFSSCHMPLTGYEVWLGTLFQNPQHGEPSLQRVPVAKMVCGPSGSQLVLLKLERSVTLNQRVALICLPPEWYVVPPGTKCEIAGWGETKGTGNDTVLNVALLNVISNQECNIKHRGRVRESEMCTEGLLAPVGACEGDYGGPLACFTHNCWVLEGIIIPNRVCARSRWPAVFTRVSVFVDWIHKVMRLG
modifications: left off: small tags and cut ends
notes: recombinant human macrophage-stimulating protein, the RON ligand
- number of surviving osteoclasts without RANKL and M-CSF (bone marrow osteoclasts [1]): significantly augmented
- osteoclast differentiation [2]: did not increase osteoclast differentiation
- resorptive capacity of RonTK−/− osteoclasts (bone marrow osteoclasts [3]): no effect
- resorptive capacity of WT osteoclasts (bone marrow osteoclasts [3]): significant increase
- phosphorylated c-Src in WT osteoclasts (c-Src): increased Src phosphorylation
